According to patent US11142752B2, “Pullulanase mutant” (Jiangnan University, priority 2018, dated 2021):
Positions count from the first letter of the chain named. Numbers in names are those of the source. Where “and” joins values, the source holds several entries; their conditions need not be identical. Equal entries are not always repeated.

B1: Mutant F476G: Bacillus subtilis str. 168 pullulanase with phenylalanine at position 476 mutated into glycine (protein, UniProt C0SPA0 1-718, looked up, variant F476G)
Pullulanase: MVSIRRSFEAYVDDMNIITVLIPAEQKEIMTPPFRLETEITDFPLAVREEYSLEAKYKYVCVSDHPVTFGKIHCVRASSGHKTDLQIGAVIRTAAFDDEFYYDGELGAVYTADHTVFKVWAPAATSAAVKLSHPNKSGRTFQMTRLEKGVYAVTVTGDLHGYEYLFCICNNSEWMETVDQYAKAVTVNGEKGVVLRPDQMKWTAPLKPFSHPVDAVIYETHLRDFSIHENSGMINKGKYLALTETDTQTANGSSSGLAYVKELGVTHVELLPVNDFAGVDEEKPLDAYNWGYNPLHFFAPEGSYASNPHDPQTRKTELKQMINTLHQHGLRVILDVVFNHVYKRENSPFEKTVPGYFFRHDECGMPSNGTGVGNDIASERRMARKFIADCVVYWLEEYNVDGFRFDLLGILDIDTVLYMKEKATKAKPGILLFGEGWDLATPLPHEQKAALANAPRMPGIGFFNDMFRDAVKGNTGHLKATGFALGNGESAQAVMHGIAGSSGWKALAPIVPEPSQSINYVESHDNHTFWDKMSFALPQENDSRKRSRQRLAAAIILLAQGVPFIHSGQEFFRTKQGVENSYQSSDSINQLDWDRRETFKEDVHYIRRLISLRKAHPAFRLRSAADIQRHLECLTLKEHLIAYRLYDLDEVDEWKDIIVIHHASPDSVEWRLPNDIPYRLLCDPSGFQEDPTEIKKTVAVNGIGTVILYLASDLKSFA
B2: Mutant F476I: Bacillus subtilis str. 168 pullulanase mutated at position 476 (F to I) (protein, UniProt C0SPA0 1-718, looked up, variant F476I)
Pullulanase: B1 Pullulanase with G476I
B3: Mutant F476C: Bacillus subtilis str. 168 pullulanase mutated at position 476 (F to C) (protein, UniProt C0SPA0 1-718, looked up, variant F476C)
Pullulanase: B1 Pullulanase with G476C
B4: Mutant F476D: Bacillus subtilis str. 168 pullulanase with phenylalanine at position 476 mutated into aspartic acid (protein, UniProt C0SPA0 1-718, looked up, variant F476D)
Pullulanase: B1 Pullulanase with G476D
B5: Mutant F476A: Bacillus subtilis str. 168 pullulanase mutated at position 476 (F to A) (protein, UniProt C0SPA0 1-718, looked up, variant F476A)
Pullulanase: B1 Pullulanase with G476A
B6: Wild enzyme: wild type pullulanase derived from Bacillus subtilis str. 168 (PDB:2E8Z, NCBI CAB14971.2, SEQ ID NO:2) (protein, listed as Bacillus subtilis)
chain: B1 Pullulanase with G476F
B7: Mutant F476V: Bacillus subtilis str. 168 pullulanase mutated at position 476 (F to V) (protein, UniProt C0SPA0 1-718, looked up, variant F476V)
Pullulanase: B1 Pullulanase with G476V
B8: Mutant F476M: Bacillus subtilis str. 168 pullulanase mutated at position 476 (F to M) (protein, UniProt C0SPA0 1-718, looked up, variant F476M)
Pullulanase: B1 Pullulanase with G476M
B9: [Brevibacterium] halotolerans Wild enzyme: wild pullulanase of [Brevibacterium] halotolerans (OEC77647.1, SEQ ID NO: 23) (protein)
chain: MVSIQRSFEAYADEMNIITVLIPADQKDTFTPPFQLETDTAEIPLTVSQEWQIEGKCKYVCVAEQPVTFGKTHHVKASGGGKTDLQIGAVVRTDAFDAAFYYDGELGAVYTSDYTEFKVWAPAATSAAVKLSHPEKSGHTLQMTRMENGVYAVTVAGDLHGYEYVYRICNNLEWTETVDPYAKAVTVNGEKGVVLRPDQANSAPSLAPFSDPVDAIIYEMHIRDFSIHENSGMKNKGKYSALAETDTKTKNGSSTGLSYLKELGVTHIELLPLNDYAGVDEENPLAAYNWGYNPLHFFAPEGSYASNPHDPQTRNTEVKQMIHTLQQHGLRVILDVVYNHVYQREHSPFEKTVPGYFFRHDQFGMPSNGTGVGNDIASERRMARKFITDCVMYWLKEYDVDGFRFDLLGILDIETVLHMKEKASEVKPGILLFGEGWDLATPLPPEQKATLANASKMPGVGFFNDSFRDAVKGNTFHIAAAGFALGNGEQTETVMRGIAGSSGWKETAPLVSAPSQSINYVESHDNHTFWDKMSLALPQESESRKRSRQKLASAIILLAQGVPFIHSGQEFFRTKQGVENSYQSSDSINQLDWSRRETFKQDVDYVRRLISLRKAHPAFRLTSSADIQRCLECLALKEHLIVYRLFNLGAIDEWEEIIVIHHASPDSVTWQLPKDKAYRLLCDTDGFRADPGEIKKAVAVNGIGTVILF
modifications: bacterial

Key:
[1] = test system: pullulanase derived from Bacillus subtilis str. 168; experiment: Inhibitory effect of cyclodextrin on pullulanase enzyme activity (DNS method, pullulan substrate); type: biochemical; conditions: for Reduction rate of specific enzyme activity in existence of α-CD / Reduction rate of specific enzyme activity in existence of β-CD / Reduction rate of specific enzyme activity in existence of γ-CD: Bacillus subtilis str. 168 pullulanase, 1% pullulan pH 6.0, 40° C., 30 min; for Reduction rate of specific enzyme activity in existence of α-CD: inhibitor α-CD (0.1 mL of 10 mM cyclodextrin); for Reduction rate of specific enzyme activity in existence of β-CD: inhibitor β-CD (0.1 mL of 10 mM cyclodextrin); for Reduction rate of specific enzyme activity in existence of γ-CD: inhibitor γ-CD (0.1 mL of 10 mM cyclodextrin); for Inhibitory effects of three cyclodextrins on the pullulanase mutant compared with the wild type pullulanase: α-CD, β-CD and γ-CD, comparison of mutant with wild type pure enzyme
Source text: (§1) 2. Measurement of Enzyme Activity of the Pullulanase:
(§2) A 3,5-dinitrosalicylic acid (DNS) method is adopted. The pullulanase catalyzes the hydrolysis of pullulan to produce reducing sugar under certain conditions, 3,5-dinitrosalicylic acid and the reducing sugar are reduced under thermal conditions to produce a brown-red amino complex, the color depth is directly proportional to the amount of the reducing sugar within a certain range, and the measurement can be performed at the wavelength of 540 nm so as to calculate the enzyme activity. Enzyme activity unit definition: the amount of the enzyme that catalyzes the production of the reducing sugar equivalent to 1 μmol of glucose reducing power per minute is defined as one activity unit.
(§3) 3. Measurement of the Enzyme Activity Comprises the Following Steps:
(§4) A. preheating: putting 1 mL of a 1% pullulan solution of which the pH value is 6.0 and 0.1 mL of a buffer solution of which the pH value is 6.0 in a centrifuge tube, and performing thermal insulation for 10 min on a water bath of 40° C.;
(§5) B. reaction: adding 0.1 mL (10 U) of an enzyme solution, performing shaking and mixing uniformly, performing accurate timing for 30 min, adding 1.5 mL of DNS for stopping reaction, performing treatment in a boiling water bath for 10 min, and performing instant cooling; and
(§6) C. measurement: measuring the light absorption value under the condition of 540 nm, and calculating the activity.
(§7) Reduction of the Inhibitory Effect of Enzyme Activity Characterization:
(§8) A. preheating: putting 1 mL of the 1% pullulan solution of which the pH value is 6.0 and 0.1 mL of 10 mM cyclodextrin in the centrifuge tube, and performing thermal insulation for 10 min on the water bath of 40° C.;
B. reaction: adding 0.1 mL (10 U) of the enzyme solution, performing shaking and mixing uniformly, performing accurate timing for 30 min, adding 1.5 mL of DNS for stopping reaction, performing treatment in the boiling water bath for 10 min, and performing instant cooling; and […]

[2] = test system: pullulanase of [Brevibacterium] halotolerans; experiment: as above; type: biochemical
Source text: as §1, §2, §3, §4, §5, §6, §7, §8
B. reaction: adding 0.1 mL (10 U) of the enzyme solution, performing shaking and mixing uniformly, performing accurate timing for 30 min, adding 1.5 mL of DNS for stopping reaction, performing treatment in the boiling water bath for 10 min, and performing instant cooling; and
On the basis, the phenylalanine at the position 481 of the Geobacillus stearothermophilus, the phenylalanine at the position 478 of the [Brevibacterium] halotolerans and the phenylalanine at the position 476 of the […] are mutated, obtained mutants and the mutation effects are shown in the table below. The key amino acid site is applicable to the pullulanase from different sources.

[3] = listed as wild type pure enzyme

Row | Molecule | Reduction rate of specific enzyme activity in existence of α-CD [1] [%] | Reduction rate of specific enzyme activity in existence of β-CD [1] [%] | Reduction rate of specific enzyme activity in existence of γ-CD [1] [%] | Inhibitory effects of three cyclodextrins on the pullulanase mutant compared with the wild type pullulanase [1] | Reduction rate of specific enzyme activity in existence of α-CD [1, 3] [%] | Reduction rate of specific enzyme activity in existence of β-CD [1, 3] [%] | Reduction rate of specific enzyme activity in existence of γ-CD [1, 3] | Reduction rate of specific enzyme activity in existence of α-CD ([2]; inhibitor α-CD) [%] | Reduction rate of specific enzyme activity in existence of β-CD ([2]; inhibitor β-CD) [%] | Reduction rate of specific enzyme activity in existence of γ-CD ([2]; inhibitor γ-CD) [%]
1 | B1 | 10.6 | 17.1 | 17.6 | significantly lower than that of the wild type pullulanase | – | – | – | – | – | –
2 | B2 | 8.2 | 21.7 | 15.2 | – | – | – | – | – | – | –
3 | B3 | 4.3 | 17.2 | 5.6 | – | – | – | – | – | – | –
4 | B4 | 5.6 | 11.1 | 11.0 | significantly lower than that of the wild type pullulanase | – | – | – | – | – | –
5 | B5 | 3.5 | 5.6 | 5.8 | – | – | – | – | – | – | –
6 | B6 | 14.3 | 42.8 | 17.1 | – | 14.3 | 42.8 | 7.1% and 17.1% | – | – | –
7 | B7 | 7.2 | 16.7 | 12.3 | – | – | – | – | – | – | –
8 | B8 | 6.5 | 20.6 | 16.1 | – | – | – | – | – | – | –
9 | B9 | – | – | – | – | – | – | – | 15.3 | 47.2 | 6.1
